What was measured:
human PD-L1 [1] = target: T1, human PD-L1 (human, UniProt Q9NZQ7 19-290); assay: flow cytometry competition on PD-L1 tf CHO-S cells against a fixed concentration of biotinylated PD1_G4, streptavidin-PE; IC50 from the table under the curves
T1 construct: whole, on cells; For the PD-L1 tf DLD1 cells the species of PD-L1 is not restated; also called PD-L1 tf CHO-S; PD-L1 tf DLD1

human PD-L1 [2] = target: T1, human PD-L1; assay: flow cytometry on PD-L1 tf CHO-S cells, PE goat anti-human IgG; EC50 from the table under the curves
Method: (§1) The samples were analyzed using a CytoFLEX flow cytometer (Beckman Coulter Inc., CA, USA).
The EC50 values were also determined according to the binding curves.

human CD47 [3] = target: T2, human CD47 (human, UniProt Q08722 19-323); assay: flow cytometry on CD47 tf CHO-S cells, PE goat anti-human IgG
T2 construct: whole, on cells; also called CD47 tf CHO-S; endogenous CD47 on FaDu and NCI-H460 cells
Method: To determine the whole cell binding ability of the HCB301_v5 proteins to CD47 expressed on cell surface, tf CHO-S cells expressing human CD47 (CD47 tf CHO-S) were used as target cells. […] The samples were analyzed using a CytoFLEX flow cytometer (Beckman Coulter Inc., CA, USA).
The EC50 values were determined according to the binding curves.

human PD-L1 [4] = target: T1, human PD-L1; assay: flow cytometry on PD-L1 tf DLD1 cells in a 1:1 mixture with DLD1 cells, PE goat anti-human IgG [D]
Method: The selective binding ability of HCB301_v5 proteins to PD-L1-expressing cells was determined as follows. DLD1 cells were labeled with CellTrace™ CFSE (Thermo, Cat #: C34554) and tf DLD1 cells expressing PD-L1 (PD-L1 tf DLD1) were labeled with Celltrace™ (Thermo, Cat #: C34557) according to the instructions provided by manufacturer. […] The samples were analyzed using a CytoFLEX flow cytometer (Beckman Coulter Inc., CA, USA). Afterwards, the cells were gated according to PE signals to calculate the percentages of different cell types by Kaluza analysis software (Beckman Coulter Inc.).

human CD47 [5] = target: T2, human CD47; assay: flow cytometry on human platelets (CD47 on platelets per paragraph 5), PE goat anti-human IgG
Method: as §1

T1 sequence (Q9NZQ7 19-290): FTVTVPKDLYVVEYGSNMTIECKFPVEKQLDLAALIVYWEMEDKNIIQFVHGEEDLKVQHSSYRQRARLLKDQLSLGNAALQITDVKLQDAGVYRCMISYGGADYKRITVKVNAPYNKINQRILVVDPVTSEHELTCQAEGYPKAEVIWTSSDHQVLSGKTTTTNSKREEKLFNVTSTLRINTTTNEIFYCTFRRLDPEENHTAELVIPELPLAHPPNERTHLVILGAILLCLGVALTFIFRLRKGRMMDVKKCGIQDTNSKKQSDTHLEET

Row | IC50 (human PD-L1 [1]) [pM] | EC50 (human PD-L1 [2]) [pM] | binding result (human CD47 [3]) | EC50 (read off the curve) (human PD-L1 [4]) [pM] | binding result (human CD47 [5]) | Binder
1 | 392 | 220 | no binding (tested: 500 nM) | ~800 |  | anti-PD-L1 VHH (2H4) (VHH) VHH: QVQLVESGGGVVQPGRSLRLSCAASGGPFMSYAMGWFRQAPGKEREFVAAIRWNGISTFYADSVKGRFTISRDNSKNTLYLQMNSLRAEDTAVYYCAAAQTIVTVPENYHFDYWGQGTQVTVSS
2 |  |  |  |  | no binding (tested: 20 nM) | h1G4 (antibody, human IgG4 S228P, kappa, V domains shown, also called negative control) VH: QVQLVESGGGLVKPGGSLRLSCAASGFTFSNYGMSWIRQAPGKGLEWVSTISGGGSNIYYADSVKGRFTISRDNAKNSLYLQMNSLRAEDTAVYYCVSYYYGIDFWGQGTSVTVSS VL: DIQMTQSPSSLSASVGDRVTITCKASQDVTTAVAWYQQKPGKAPKLLIYWASTRHTGVPSRFSGSGSGTDFTLTISSLQPEDFATYYCQQHYTIPWTFGGGTKLEIKR
